Test results taken from publication PMC12505970.

Molecular target: FLAG-AuxB^W86A (S. aureus) (S. aureus)
Assay: co-IP; FLAG-tagged bait from S. aureus membranes solubilised in 1% DDM (PBS pH 7.4, NaCl), α-FLAG M2 magnetic beads at 4°C, washes with decreasing DDM, elution with 3×FLAG peptide; Coomassie-stained gel, bands identified by LC-MS

## PknB (endogenous, S. aureus) (from UniProt A0A0H2XGG5 1-664) (natural protein)
  ratio of PknB pulled down, AuxB^W86A against wild type (densitometry): 4.2
  ratio of PknB pulled down, AuxB^W86A against wild type (peptide counts of PknB in the total eluate): 5
